“Also recorded” adds a separate entry of the source.
What was measured:
[1] = molecular target: T1, L755S HER2 receptor (Homo sapiens, UniProt P04626, L755S); test: HER2 reporter cells transfected with linear expression cassette of L755S HER2, all-in-one method; type: cell-based
T1 construct: expressed in transfected cells; host or cells: HER2 reporter cells (clone #1)
Text: L755S corresponds to a missense mutation of HER2, which changes leucine (L) into serine (S) at amino acid position of 755. In order to functionally characterize this mutation, PCR-mediated overlapping extension was employed to construct linear expression cassette of HER2 carrying this mutation. The linear expression cassette of mutant HER2 DNA was first transfected into the reporter cells followed by treatment with NRG1 and its inhibitors using the “all-in-one” method. The luciferase reporter activity was measured 24 hours post-transfection.

[2] = molecular target: T2, wild-type HER2 receptor (Homo sapiens, UniProt P04626); test: Clone #28 stable 6×JNK-Luc reporter cells with HER3 plasmid and HER2 linear expression cassette; type: cell-based; conditions: HER3 plasmid and HER2 linear expression DNA, 6 hours
T2 construct: expressed in transfected cells
Procedure: In the assay of the invention, expression of patient HER2 receptor is in the linear expression cassette format instead of plasmid DNA. Therefore, the clone #28 cells were transfected with HER3 expression plasmid and HER2 linear expression DNA. After 24 hours, the transfected cells were stimulated with a serial dilution of NRG1 for 6 hours. The luciferase reporter activity was measured. […] Therefore, this clone can be used to measure HER2 receptor activity by transfecting linear expression DNA of HER2.
In order to validate that the clone #28 cells was capable to measure the HER2 receptor activity, expression plasmids of HER3 were co-transfected with wild-type, constitutively active or kinase-dead HER2 receptors. […] The luciferase reporter activity of the transfected cells was measured by Nano-Glo® Luciferase Assay (Promega). […] However, no activation of reporter was detected when the cells were transfected with kinase-dead form of HER2 receptor.
In order to validate that the clone #28 reporter cells were capable of measuring the response of HER2 receptor to its inhibitors, these cells were first transfected with the HER2 linear expression DNA and HER3 expression plasmids followed by treatment of HER2 inhibitors for 6 hours in the presence of NRG1. The luciferase reporter activity of the treated cells was measured by Nano-Glo® Luciferase Assay (Promega). […]

[3] = molecular target: T2, wild-type HER2 receptor; test: 6×JNK-Luc reporter in HEK293 DKO #27 cells transfected with HER2 and HER3 expression plasmids; type: cell-based; conditions: 6 hours
Procedure: In example 4, the generation double knockout cells (HEK293 DKO #27) of HER1 and HER2 receptors was described. No protein expression of HER1 and HER2 receptors was detected by immunoblot assays. In order to characterize whether these cells are desirable for use in the assay of the invention, 6×JNK-Luc was co-transfected with expression plasmids of HER3 and wild-type HER2 receptors. After 24 hours, the transfected cells were treated with a serial dilution of NRG1 (HER3 receptor ligand) for 6 hours. The luciferase reporter activity of the transfected cells was measured by Nano-Glo® Luciferase Assay (Promega).
In order to validate the requirement of HER2 receptor in the activation of 6×JNK-Luc reporter in response to NRG1 treatment, the DKO #27 cells were transfected with the wild-type HER2 and HER3 expression plasmids followed by treatment of HER2 inhibitors for 6 hours. The luciferase reporter activity of the treated cells was measured by Nano-Glo® Luciferase Assay (Promega). […]
In order to validate that this 6×JNK-Luc reporters has the capacity of measuring HER2 receptor activity, the reporters were co-transfected with expression plasmids of HER3 and wild-type, constitutively active or kinase-dead HER2 receptors into the DKO #27 cells. […] The luciferase reporter activity of the transfected cells was measured by Nano-Glo® Luciferase Assay (Promega). […]

[4] = tested on: HER1, HER2 and HER3 receptors; test: ERK-Luc, JNK-Luc and NFkB-Luc reporters in HEK293 cells co-transfected with HER1, HER2 and HER3, treated with ligand; type: cell-based, human; conditions: ligand 6 hours; HER1, HER2, HER3 co-transfected HEK293
Procedure: In order to identify reporters to measure the activity of HER2 receptor, expression plasmids of HER1, HER2 and HER3 were co-transfected with different reporter constructs, including ERK-Luc, JNK-Luc and NFkB-Luc, into the HEK293 cells. After 24 hours, the transfected cells were treated with either EGF (HER1 receptor ligand) or NRG1 (HER3 receptor ligand) for 6 hours. The luciferase reporter activity of the transfected cells was measured by Nano-Glo® Luciferase Assay (Promega). […] JNK-Luc reporter was activated when the transfected cells were treated with either HER1 or HER3 ligand (FIG. 11B).
For cell transfection experiments, HEK293 cells (ATCC) were plated at density of 4-8×10^4 cells per well (96-well plates) or 1-2×10^4 cells per well (384-well plates) in phenol red-free MEM containing 10% FBS and antibiotics. Either DNA plasmid or linear DNA was mixed with TransIT-293 transfection reagent (Mirus Bio LLC). Once cells were trypsinized, DNA transfection mix was added. The cells were then incubated for 24 or 48 hours.

Substance: NRG1: neuregulin-1, HER3 receptor ligand
- response of mutant HER2 reporter activity to ligand [1]: responds to treatment
- reporter activation by ligand [2]: dose dependent manner; also recorded: activated
- 6×JNK-Luc reporter activation by ligand [3]: dose dependent activation; also recorded: activated
- ERK-Luc reporter activation [4]: activated
- JNK-Luc reporter activation [4]: activated
- NFkB-Luc reporter activation [4]: no activation

— patent publication US11319601B2, “Cell based assay” (Medical Diagnostic Laboratories, L.L.C., priority 2017, dated 2022)
